The source of these data is article PMC7721737, “Cytosolic sequestration of the vitamin D receptor as a therapeutic option for vitamin D-induced hypercalcemia” (Nature Communications, 2020).

The target in assay [1] is T1, full-length human vitamin D receptor (hVDR, amino acid 1-427), His-tagged (human, UniProt P11473 1-427).
T1 construct: For microscale thermophoresis the protein was labelled with the Red-NHS second generation labelling kit (NanoTemper); also called NR1I1; hVDR full-length; source: E. coli BL21 DE3, purified (HisTrap, SEC)
T1 sequence (looked up): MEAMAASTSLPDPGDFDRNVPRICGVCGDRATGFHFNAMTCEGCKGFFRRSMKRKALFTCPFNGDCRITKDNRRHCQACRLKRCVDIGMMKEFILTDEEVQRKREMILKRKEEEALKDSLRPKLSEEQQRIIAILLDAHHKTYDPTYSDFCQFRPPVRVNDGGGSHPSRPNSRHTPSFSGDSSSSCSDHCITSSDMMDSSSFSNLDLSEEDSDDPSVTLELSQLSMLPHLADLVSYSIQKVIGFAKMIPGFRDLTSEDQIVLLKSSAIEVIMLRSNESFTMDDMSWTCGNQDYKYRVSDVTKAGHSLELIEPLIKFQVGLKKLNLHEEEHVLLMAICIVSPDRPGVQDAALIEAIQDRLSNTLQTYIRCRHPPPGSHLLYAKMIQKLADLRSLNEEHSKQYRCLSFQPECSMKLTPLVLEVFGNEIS
Nature of the assay: SEC; mixed in stoichiometric amounts and purified on HiLoad Superdex 200 in 20 mM Tris pH 8.0, 75 mM NaCl, 75 mM KCl, 2 mM CHAPS, 5% glycerol, 4 mM MgSO4, 1 mM TCEP; heterodimer then used for HDX-MS (apo, 1,25D3, ZK). The settings on record: both partners purified. (SEC sorts molecules by how far they enter the pores of the column.)

The target of assay [2] is T1, full-length human vitamin D receptor …. Nature of the assay: MST; Monolith NT.115; 10 nM Red-NHS labelled full-length hVDR with or without ZK; unlabelled WBP4 122-196 from 100 µM to 1 nM; 20 mM Hepes pH 7.5, 200 mM NaCl, 2% glycerol, 1 mM TCEP, 0.05% Tween 20; 25 °C; 1:1 fit, apparent Kd. As to conditions: both partners purified.
Assay [3] addresses T2, full-length human vitamin D receptor (hVDR, amino acid 1-427), His-tagged (human, UniProt P11473 1-427).
T2 chain: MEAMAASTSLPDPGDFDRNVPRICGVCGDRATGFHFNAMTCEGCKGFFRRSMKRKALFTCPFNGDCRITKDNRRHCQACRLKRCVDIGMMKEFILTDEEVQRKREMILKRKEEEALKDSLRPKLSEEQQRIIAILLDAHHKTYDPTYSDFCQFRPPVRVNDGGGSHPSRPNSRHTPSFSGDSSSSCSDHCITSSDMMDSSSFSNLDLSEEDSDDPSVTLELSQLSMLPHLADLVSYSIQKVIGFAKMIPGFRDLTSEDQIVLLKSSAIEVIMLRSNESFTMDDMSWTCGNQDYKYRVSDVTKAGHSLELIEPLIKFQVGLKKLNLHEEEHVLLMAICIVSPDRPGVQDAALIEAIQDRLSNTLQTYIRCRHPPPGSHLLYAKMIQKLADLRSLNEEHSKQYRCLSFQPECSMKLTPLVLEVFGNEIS
Nature of the assay: MST; ZK-bound VDR.

The target of assay [4] is T3, ligand binding domain of hVDR (aa 118-427), His-tagged (human, UniProt P11473 118-427).
T3 construct: also called hVDR LBD; source: E. coli BL21 DE3, purified (HisTrap, SEC)
T3 sequence (looked up): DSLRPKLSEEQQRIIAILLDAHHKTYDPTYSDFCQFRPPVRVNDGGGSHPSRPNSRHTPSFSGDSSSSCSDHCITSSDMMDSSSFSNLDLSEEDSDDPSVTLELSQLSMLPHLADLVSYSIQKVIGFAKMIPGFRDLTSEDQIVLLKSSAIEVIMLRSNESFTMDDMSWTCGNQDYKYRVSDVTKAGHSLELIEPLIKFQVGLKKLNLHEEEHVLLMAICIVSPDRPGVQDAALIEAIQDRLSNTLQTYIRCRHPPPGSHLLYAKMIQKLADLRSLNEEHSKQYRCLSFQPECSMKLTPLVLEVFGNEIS
Nature of the assay: SPR; Biacore T200, hRXRα LBD monomers amine-coupled on CM5 (400-500 RU); hVDR LBD 1-30 µM without ligand or with a 3-fold excess of 1,25D3 or ZK; 50 mM Tris pH 7.5, 150 mM NaCl, 1 mM TCEP, 0.005% Tween 20; steady state fit. The settings on record: both partners purified.

B1: N-terminal domain truncated human RXRalpha (hRXRαΔNTD, amino acid 130-462), His-tagged (domain or fragment, UniProt P19793 130-462, looked up)
chain: FTKHICAICGDRSSGKHYGVYSCEGCKGFFKRTVRKDLTYTCRDNKDCLIDKRQRNRCQYCRYQKCLAMGMKREAVQEERQRGKDRNENEVESTSSANEDMPVERILEAELAVEPKTETYVEANMGLNPSSPNDPVTNICQAADKQLFTLVEWAKRIPHFSELPLDDQVILLRAGWNELLIASFSHRSIAVKDGILLATGLHVHRNSAHSAGVGAIFDRVLTELVSKMRDMQMDKTELGCLRAIVLFNPDSKGLSNPAEVEALREKVYASLEAYCKHKYPEQPGRFAKLLLRLPALRSIGLKCLEHLFFFKLIGDTPIDTFLMEMLEAPHQMT
notes: source: E. coli BL21 DE3, purified (HisTrap, SEC)
As for B1, in assay [1], the binding result is “binds”.

B2: hWBP4 polypeptide (amino acid 122-196) encompassing the two WW domains (domain or fragment, human, UniProt O75554 122-196, looked up)
chain: DPSKGRWVEGITSEGYHYYYDLISGASQWEKPEGFQGDLKKTAVKTVWVEGLSEDGFTYYYNTETGESRWEKPDD
notes: also called FBP21; source: E. coli BL21 DE3, purified (glutathione sepharose, thrombin cleavage, SEC); not shown: GST, N-terminal, cleaved
One may read the Kd as a measure of binding affinity in units of concentration. A higher Kd goes with lower affinity. Regarding B2, the “fold increase of the affinity in the presence of ZK against without ZK” value in assay [2] was about 2 fold. In assay [3], this molecule displayed a Kd of 11 µM.

B3: ligand binding domain of hRXRα (aa 223-462), His-tagged (domain or fragment, human, UniProt P19793 223-462, looked up)
chain: TSSANEDMPVERILEAELAVEPKTETYVEANMGLNPSSPNDPVTNICQAADKQLFTLVEWAKRIPHFSELPLDDQVILLRAGWNELLIASFSHRSIAVKDGILLATGLHVHRNSAHSAGVGAIFDRVLTELVSKMRDMQMDKTELGCLRAIVLFNPDSKGLSNPAEVEALREKVYASLEAYCKHKYPEQPGRFAKLLLRLPALRSIGLKCLEHLFFFKLIGDTPIDTFLMEMLEAPHQMT
notes: Immobilised as monomers on the SPR chip; also called hRXRα LBD; source: E. coli BL21 DE3, purified (HisTrap, SEC)
Regarding B3, the binding result in assay [4] is given as “binds”.
